Reference: patent US20210100916A1, “PREPARATION AND USE OF MITOCHONDRION-TARGETING SELF-ASSEMBLED PROTEIN NANOPARTICLE” (PEKING UNIVERSITY, priority 2018, published 2021)

Legend:
[1] = Body weight / toxicity during breast cancer treatment; format: in vivo, Balb/c mice; details: 100 μL of 30 pmol/L tail vein, 5 injections, vs PBS
Description: Taking the breast cancer of Balb/c mice as an example, 3×10^6 4T1 (stable transfected Luciferase) breast cancer cells were inoculated into Balb/c mice; when the tumor grew to 50-70 mm^3, 100 μL of 30 pmol/L GSTP1-MT3(Co^2+) was injected through the tail vein as the experimental group, and 100μL of PBS was injected through the tail vein as the control group. The injection was performed once every two days, that is, the tail vein injection was performed on the 3rd, 5th, 7th, 9th and 11th day of the experiment, respectively. A total of 5 injections were given. The weights of the mice and the size of the tumor were recorded at different time points.

U87MG cells = test: ROS content in cells (DCFH-DA probe, confocal imaging); format: cell-based; details: 6 μmo/L, 24 hours, 10 μmol/L DCFH-DA, FIGS. 6 and 7
Description: Taking U87MG cell line as an example, 5×10^4 U87MG cells were added to a confocal dish and incubated overnight at 37° C. and 5% CO2; GSTP1-MT3(Fe^2+) and GSTP1-MT3(Co^2+) prepared in Example 3 were added to it (the final concentration was 6 μmo/L) and incubated again for 24 hours, and then washed with PBS for three times; then, 10 μmol/L DCFH-DA (ROS probe) was added, incubated at 37° C. for 30 minutes, and washed with PBS for three times; finally, confocal imaging was performed, and statistics was performed on the ROS content.

Substance: GSTP1-MT3(Co^2+): Self-assembled protein nanoparticle of MT3-GGGGS-GSTP1 fusion protein (SEQ ID NO: 4) induced by Co^2+
- body weights, experimental group vs control group [1]: not much different
- toxic or side effects on mice [1]: no obvious toxic or side effects
- ROS content in cells (U87MG cells): significantly increase
